Reference: EP2164866B1

Biological target: epidermal growth factor receptor (EGFR) on EGFR positive U87 cells (UniProt P00533)
Assay: FACS saturation binding to EGFR receptor

Row | Substance | Half saturation | Bmax (RFU)
1 | Anti-EGFR-Angiopep-2 conjugate (EGFR antibody monoclonal 528 cross-linked to Angiopep-2 with SATA) | 1.8 nM | 
2 | EGFR antibody (monoclonal 528 available from ATCC) | 1.7 nM | 23.6 RFU
